We go through one molecule from US20250282861A1 (SYDDANSK UNIVERSITET, published 2025).

This test has as its target T1, recombinant human MFAP4 (microfibrillar-associated protein 4) (human, UniProt P55083 22-255).
T1 construct: It was coated on plates or filters at 10 µg/ml and also served as the ELISA standard; also called rhMFAP4; hrMFAP4
T1 sequence (looked up): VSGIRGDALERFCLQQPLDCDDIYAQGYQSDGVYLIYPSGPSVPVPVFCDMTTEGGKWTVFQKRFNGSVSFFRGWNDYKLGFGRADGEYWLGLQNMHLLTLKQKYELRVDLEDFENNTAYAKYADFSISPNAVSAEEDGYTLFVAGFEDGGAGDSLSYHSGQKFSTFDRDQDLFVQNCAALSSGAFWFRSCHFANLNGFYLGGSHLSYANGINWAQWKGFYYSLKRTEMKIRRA
As to the kind of experiment: sandwich ELISA, capture antibody coated at 1 µg/ml; rhMFAP4 as standard. (An ELISA detects its analyte on a solid surface through an enzyme-linked reagent.)

Method: The next day, plates were washed and blocked with PBS/tween for 1h at room temperature. […] Then, plates were successively incubated with horseradish peroxidase (HRP)-conjugated streptavidin (1:2000, diluted in PBS/tween, Invitrogen) for half an hour at room temperature, O-phenylenediamine dihydrochloride (OPD) (0.4 mg/ml, H1009, Sigma) dissolved in HRP with 0.03% H₂O₂, for 15 min at room temperature in the dark. Finally, 100 μl/well of 1M H₂SO₄ was added to stop the color development. Optical density was read at 492 nm wavelength with 620 nm as reference using ELISA microplate reader.

B1: HG Hyb 7-5 murine monoclonal antibody raised against human recombinant MFAP4 (antibody, mouse IgG1, V domains shown)
VH: EVQLQQSGPELVKPGASVKLSCKTSGYTFTSYDMNWVKQRPGQGLEWIGWIFPRDGSTKFNEKFKGKATLTVDTSSTTAYMELHSLTSEDSAVYFCARAEIFFDYGFDYWGQGTTLTVSS
VL: DIVMTQSTALMAASPGEKVTITCSVSSSISSSNLHWYQQKSETSPKSWIYGTSNLASGVPGRFSGSGSGTSYSLTISSVEAEDAATYYCQQWSSYPLTFGGGTKLEIK
notes: Used as the capture antibody in the ELISA for human MFAP4
For B1, the binding result was “binds”.
